Experiment [1] concerns the target T1, antigen EGFRvIII (purchased protein) (UniProt P00533 25-645, limits assumed).
T1 construct: also called EGFRvIII antigen; biotin-labeled antigen EGFRvIII
The experiment is described as follows: concentration gradient ELISA, EGFRvIII coated 200 ng/well, anti-His-tag detection, non-linear fit.
Experimental: Binding activity of an antibody to antigen EGFRvIII was determined by concentration gradient ELISA assay. For this purpose, the antigen EGFRvIII was diluted with 0.1 M NaHCO₃ (pH 9.6) coating solution and each well was coated with 200 ng at 50 μl/well overnight at 4° C. and blocked with PBST containing 2% (w/v) BSA for 2 hours at room temperature. The plate was then rinsed for three times with PBST. […] After incubation for 2 hours at 37° C., plate was rinsed for three times with PBST followed by adding 100 μl/well of a 1:2000 dilution of mouse anti-His-tag antibody (available from Santa cruz) for 1 hour at 37° C. To test the bound antibody, HRP-labeled goat anti-mouse antibody (purchased from Santa Cruz) was diluted in PBST at a 1:15,000 dilution and 100 μl per well was added and incubated at 37° C. for 1 hour. […] The chromogenic reaction was stopped with 50 μl of 2 M H₂SO₄ per well and extinction value was measured at 450 nm using enzyme-linked immunoassay (Bio-Rad). The absorbance values obtained were evaluated using Sigma Plot software and the binding strength of an antibody was calculated. For this purpose, the extinction value measured in each case was plotted against the corresponding antibody concentration and the resulting curve was fitted using the following non-linear regression.

The target in experiment [2] is EGFR on the cell surface (human) (UniProt P00533). The experiment is described as follows: FACS on CAL 27 cells, method of Example 9; PBS control 3.11.
In experiment [3] the target is T2, EGFRvIII on U87-EGFRvIII cells (human, UniProt P00533 25-1210).
T2 construct: whole, on cells; EGFRvIII is a deletion variant of it; also called U87MG-EGFRvIII; mutant human EGFR
The experiment is described as follows: FACS on U87MG-EGFRvIII cells, method of Example 9; PBS control 1.

In a further experiment the target is T3, N1N2 (control protein) (M13 phage, UniProt P69168 19-235, limits assumed).
T3 construct: domain: N1N2 domain; Negative control protein in the phage ELISA
The experiment is described as follows: single phage ELISA, 100 ng/well coated protein. Here is the method: (§1) Each well was blocked with PBST containing 2% BSA (w/v). The wells were then washed with PBST for three times. Then, each phage solution prepared above was added to each well of the plate at 100 μl/well. After incubation for 2 hours at 37° C., it was washed for three times with PBST. To detect bound phage, anti-M13 antibody […] conjugate (purchased from GE Healthcare) was diluted at 1:5000 in PBST and 100 μl was added to each well. After incubating at 37° C. for 1 hour, the wells were rinsed for three times with PBST and then rinsed for three times with PBS. Finally, 50 μl of TMB substrate was added into the wells and developed for 10 minutes at room temperature, followed by addition of 50 μl of 2M H₂SO₄ per well to stop the color reaction. Extinction values were measured at 450 nm with an enzyme-linked immunosorbent (Bio-Rad).
(§2) All of the altered amino acid positions include S31 in the light chain CDR1 region, V89, A92, Q93, F94 and Y96 in the light chain CDR3 region, 5182 in the heavy chain CDR2 region, L222, R224, G225, F226 and R227 in the heavy chain CDR3 region.
(An ELISA detects its analyte on a solid surface through an enzyme-linked reagent.)

Experiment [4] concerns the target T4, BSA (bovine serum albumin) (bovine, UniProt P02769 25-607).
T4 construct: Negative control protein in the phage ELISA
The experiment is described as follows: single phage ELISA, 100 ng/well coated protein. The procedure:
as §1, §2

Experiment [5] concerns the target T2, EGFRvIII on U87-EGFRvIII cells. The experiment is described as follows: FACS on U87-EGFRvIII cells, 20 µg/ml. Here is the method: 2) Cells were digested with 10 mM EDTA and cells were collected by centrifugation at 200 g for 5 min. Cells were resuspended in 1% phosphate buffered saline (NBS PBS) containing calf serum at a concentration of 1×10⁶ to 1×10⁷/mL, and added in a flow tube in an amount of 100 μl/tube.
And PBS was used as a negative control. The final concentration of antibody was 20 μg/ml, 100 μl was added to each tube and placed in an ice bath for 45 minutes.

14 molecules from US20180327501A1 (CARSGEN THERAPEUTICS, published 2018) can be followed below.

T4 sequence (P02769 25-607 limits assumed): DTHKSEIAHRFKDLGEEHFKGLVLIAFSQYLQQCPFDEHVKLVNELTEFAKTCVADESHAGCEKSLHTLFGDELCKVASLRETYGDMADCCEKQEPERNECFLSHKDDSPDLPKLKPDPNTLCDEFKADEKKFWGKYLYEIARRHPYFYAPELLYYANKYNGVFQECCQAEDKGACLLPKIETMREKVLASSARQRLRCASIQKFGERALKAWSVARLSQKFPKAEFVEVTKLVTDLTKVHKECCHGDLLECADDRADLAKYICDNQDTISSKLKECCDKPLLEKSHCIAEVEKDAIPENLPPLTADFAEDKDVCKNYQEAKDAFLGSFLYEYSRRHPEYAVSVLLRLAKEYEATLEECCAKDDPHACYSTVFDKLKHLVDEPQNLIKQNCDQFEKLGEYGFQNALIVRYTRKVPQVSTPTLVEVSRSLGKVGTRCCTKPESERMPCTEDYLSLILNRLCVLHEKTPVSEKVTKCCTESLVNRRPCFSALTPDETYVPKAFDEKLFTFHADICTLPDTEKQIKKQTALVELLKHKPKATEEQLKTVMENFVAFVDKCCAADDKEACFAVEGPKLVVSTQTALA
T3 sequence (P69168 19-235 limits assumed): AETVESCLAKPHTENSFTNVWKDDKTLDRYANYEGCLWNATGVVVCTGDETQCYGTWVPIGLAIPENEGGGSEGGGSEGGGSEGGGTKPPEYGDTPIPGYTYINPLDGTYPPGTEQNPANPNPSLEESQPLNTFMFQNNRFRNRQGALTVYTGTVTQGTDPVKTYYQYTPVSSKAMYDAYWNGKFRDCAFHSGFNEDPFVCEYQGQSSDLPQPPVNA

B1: antibody 7B3, single chain antibody with carboxy-terminal 6xhistidine, produced in E. coli (scFv)
scFv: DIQMTQSPSSLSASVGDRVTITCHASQDINSNIGWLQQKPGKAFKGLIYHGKNLEDGVPSRFSGSGSGTDFTLTISSLQPEDFATYYCVQYAQFPYTFGQGTKVEIKRGGGGSGGGGSGGGGSDVQLVESGGGLVQPGGSLRLSCAVSGYSITSDYAWNWIRQAPGKGLEWLGYISYRGRTSYNPSLKSRISITRDNSKNTFFLQLNSLRAEDTAVYYCARLGRGFRYWGQGTLVTVSSHHHHHH
For B1, in experiment [1], the Kd (usually the concentration at which binding is half-saturated) was around 22.4 nM.

B2: antibody Y022, single chain antibody with carboxy-terminal 6xhistidine, produced in E. coli (scFv)
scFv: DIQMTQSPSSLSASVGDRVTITCHASQDINVNIGWLQQKPGKAFKGLIYHGKNLEDGVPSRFSGSGSGTDFTLTISSLQPEDFATYYCNQYENIPLTFGQGTKVEIKRGGGGSGGGGSGGGGSDVQLVESGGGLVQPGGSLRLSCAVSGYSITSDYAWNWIRQAPGKGLEWLGYISYRGRTQYNPSLKSRISITRDNSKNTFFLQLNSLRAEDTAVYYCARMGKNWDYWGQGTLVTVSSHHHHHH
In experiment [1], B2 had a Kd of around 2.7 nM.

B3: M14/CD3 single chain bifunctional antibody (bispecific antibody, part only; not given: linker, anti-CD3 scFv, His tag, not shown: another chain or arm of the molecule)
chain: DIQMTQSPSSLSASVGDRVTITCHASQDINSNIGWLQQKPGKAFKGLIYHGKNLEDGVPSRFSGSGSGTDFTLTISSLQPEDFATYYCNQYENNPITFGQGTKVEIKRGGGGSGGGGSGGGGSDVQLVESGGGLVQPGGSLRLSCAVSGYSITSDYAWNWIRQAPGKGLEWLGYISYRGRTNYNPSLKSRISITRDNSKNTFFLQLNSLRAEDTAVYYCARLGRGFRYWGQGTLVTVSS
As to B3, the mean fluorescence intensity (MFI) was found to be 28.4 in experiment [2] and 36.5 in experiment [3].

B4: S29/CD3 single chain bifunctional antibody (bispecific antibody, part only; not given: linker, anti-CD3 scFv, His tag, not shown: another chain or arm of the molecule)
chain: DIQMTQSPSSLSASVGDRVTITCHASQDINVNIGWLQQKPGKAFKGLIYHGKNLEDGVPSRFSGSGSGTDFTLTISSLQPEDFATYYCNQYENFPLTFGQGTKVEIKRGGGGSGGGGSGGGGSDVQLVESGGGLVQPGGSLRLSCAVSGYSITSDYAWNWIRQAPGKGLEWLGYISYRGRTRYNPSLKSRISITRDNSKNTFFLQLNSLRAEDTAVYYCARLGRGFRYWGQGTLVTVSS
With B4, the figures for the mean fluorescence intensity (MFI) in experiment [2] and in experiment [3] were 25.7 and 34.6, respectively.

B5: S7/CD3 single chain bifunctional antibody (bispecific antibody, part only; not given: linker, anti-CD3 scFv, His tag, not shown: another chain or arm of the molecule)
chain: DIQMTQSPSSLSASVGDRVTITCHASQDINVNIGWLQQKPGKAFKGLIYHGTNLEDGVPSRFSGSGSGTDFTLTISSLQPEDFATYYCNQYENNPITFGQGTKVEIKRGGGGSGGGGSGGGGSDVQLVESGGGLVQPGGSLRLSCAVSGYSITSDYAWNWIRQAPGKGLEWLGYISYRGRTSYNPSLKSRISITRDNSKNTFFLQLNSLRAEDTAVYYCARLGRGFRYWGQGTLVTVSS
B5: the mean fluorescence intensity (MFI) came out at 27.9 in experiment [2] and 42.2 in experiment [3].

B6: S17/CD3 single chain bifunctional antibody (bispecific antibody, part only; not given: linker, anti-CD3 scFv, His tag, not shown: another chain or arm of the molecule)
chain: DIQMTQSPSSLSASVGDRVTITCHASQDINTNIGWLQQKPGKAFKGLIYHGKNLEDGVPSRFSGSGSGTDFTLTISSLQPEDFATYYCNQYENNPLTFGQGTKVEIKRGGGGSGGGGSGGGGSDVQLVESGGGLVQPGGSLRLSCAVSGYSITSDYAWNWIRQAPGKGLEWLGYISYRGRTQYNPSLKSRISITRDNSKNTFFLQLNSLRAEDTAVYYCARLGRGFRYWGQGTLVTVSS
For the molecule B6, the mean fluorescence intensity (MFI) is 25 in experiment [2] and 31.6 in experiment [3].

B7: M15/CD3 single chain bifunctional antibody (bispecific antibody, part only; not given: linker, anti-CD3 scFv, His tag, not shown: another chain or arm of the molecule)
chain: DIQMTQSPSSLSASVGDRVTITCHASQDINVNIGWLQQKPGKAFKGLIYHGKNLEDGVPSRFSGSGSGTDFTLTISSLQPEDFATYYCNQYENNPITFGQGTKVEIKRGGGGSGGGGSGGGGSDVQLVESGGGLVQPGGSLRLSCAVSGYSITSDYAWNWIRQAPGKGLEWLGYISYRGRTSYNPSLKSRISITRDNSKNTFFLQLNSLRAEDTAVYYCARLGRGFRYWGQGTLVTVSS
Consider B7, for which the mean fluorescence intensity (MFI) in experiment [2] was 29.4; in experiment [3] it was 37.9.

B8: M26/CD3 single chain bifunctional antibody (bispecific antibody, part only; not given: linker, anti-CD3 scFv, His tag, not shown: another chain or arm of the molecule)
chain: DIQMTQSPSSLSASVGDRVTITCHASQDINVNIGWLQQKPGKAFKGLIYHGKNLEDGVPSRFSGSGSGTDFTLTISSLQPEDFATYYCNQYENIPLTFGQGTKVEIKRGGGGSGGGGSGGGGSDVQLVESGGGLVQPGGSLRLSCAVSGYSITSDYAWNWIRQAPGKGLEWLGYISYRGRTQYNPSLKSRISITRDNSKNTFFLQLNSLRAEDTAVYYCARLGRGFRYWGQGTLVTVSS
B8: the mean fluorescence intensity (MFI) in experiment [2] was determined as 24.6; in experiment [3] it was 41.4.

B9: S8/CD3 single chain bifunctional antibody (bispecific antibody, part only; not given: linker, anti-CD3 scFv, His tag, not shown: another chain or arm of the molecule)
chain: DIQMTQSPSSLSASVGDRVTITCHASQDINVNIGWLQQKPGKSFKGLIYHGKNLEDGVPSRFSGSGSGTDFTLTISSLQPEDFATYYCNQYENNPITFGQGTKVEIKRGGGGSGGGGSGGGGSDVQLVESGGGLVQPGGSLRLSCAVSGYSITSDYAWNWIRQAPGKGLEWLGYISYRGRTSYNPSLKSRISITRDNSKNTFFLQLNSLRAEDTAVYYCARLGRGFRYWGQGTLVTVSS
Turning to B9, the mean fluorescence intensity (MFI) in experiment [2] is 30; in experiment [3], 38.5.

B10: M25/CD3 single chain bifunctional antibody (bispecific antibody, part only; not given: linker, anti-CD3 scFv, His tag, not shown: another chain or arm of the molecule)
chain: DIQMTQSPSSLSASVGDRVTITCHASQDINVNIGWLQQKPGKAFKGLIYHGKNLEDGVPSRFSGSGSGTDFTLTISSLQPEDFATYYCNQYENIPLTFGQGTKVEIKRGGGGSGGGGSGGGGSDVQLVESGGGLVQPGGSLRLSCAVSGYSITSDYAWNWIRQAPGKGLEWLGYISYRGRTRYNPSLKSRISITRDNSKNTFFLQLNSLRAEDTAVYYCARLGRGFRYWGQGTLVTVSS
B10: the mean fluorescence intensity (MFI) in experiment [2] was 24.1; in experiment [3], 36.5.

B11: S22/CD3 single chain bifunctional antibody (bispecific antibody, part only; not given: linker, anti-CD3 scFv, His tag, not shown: another chain or arm of the molecule)
chain: DIQMTQSPSSLSASVGDRVTITCHASQDINVNIGWLQQKPGKAFKGLIYHGTNLEDGVPSRFSGSGSGTDFTLTISSLQPEDFATYYCNQYENNPLTFGQGTKVEIKRGGGGSGGGGSGGGGSDVQLVESGGGLVQPGGSLRLSCAVSGYSITSDYAWNWIRQAPGKGLEWLGYISYRGRTRYNPSLKSRISITRDNSKNTFFLQLNSLRAEDTAVYYCARLGRGFRYWGQGTLVTVSS
In the case of B11, the mean fluorescence intensity (MFI) in experiment [2] was 24.6; in experiment [3], 31.3.

B12: S23/CD3 single chain bifunctional antibody (bispecific antibody, part only; not given: linker, anti-CD3 scFv, His tag, not shown: another chain or arm of the molecule)
chain: DIQMTQSPSSLSASVGDRVTITCHASQDINVNIGWLQQKPGKSFKGLIYHGKNLEDGVPSRFSGSGSGTDFTLTISSLQPEDFATYYCNQYENNPLTFGQGTKVEIKRGGGGSGGGGSGGGGSDVQLVESGGGLVQPGGSLRLSCAVSGYSITSDYAWNWIRQAPGKGLEWLGYISYRGRTRYNPSLKSRISITRDNSKNTFFLQLNSLRAEDTAVYYCARLGRGFRYWGQGTLVTVSS
Turning to B12, the mean fluorescence intensity (MFI) in experiment [2] turned out to be 29.7; in experiment [3], 32.2.

B13: single chain antibody Y022 displayed on phage (scFv)
scFv: DIQMTQSPSSLSASVGDRVTITCHASQDINVNIGWLQQKPGKAFKGLIYHGKNLEDGVPSRFSGSGSGTDFTLTISSLQPEDFATYYCNQYENIPLTFGQGTKVEIKRGGGGSGGGGSGGGGSDVQLVESGGGLVQPGGSLRLSCAVSGYSITSDYAWNWIRQAPGKGLEWLGYISYRGRTQYNPSLKSRISITRDNSKNTFFLQLNSLRAEDTAVYYCARMGKNWDYWGQGTLVTVSS
notes: 12 mutations against 7B3; not shown: fusion to M13 phage coat protein from phagemid pCANTAB 5E (pCantab 5E-Y022)
Turning to B13, the binding result (in the experiment with N1N2 (control protein); in experiment [4]) was “no binding” each time.

B14: scFv-Y022-Fc (Fc fusion)
chain: DIQMTQSPSSLSASVGDRVTITCHASQDINVNIGWLQQKPGKAFKGLIYHGKNLEDGVPSRFSGSGSGTDFTLTISSLQPEDFATYYCNQYENIPLTFGQGTKVEIKRGGGGSGGGGSGGGGSDVQLVESGGGLVQPGGSLRLSCAVSGYSITSDYAWNWIRQAPGKGLEWLGYISYRGRTQYNPSLKSRISITRDNSKNTFFLQLNSLRAEDTAVYYCARMGKNWDYWGQGTLVTVSS
notes: Expressed in HEK-293F cells, protein A purified; also called single chain antibody Y022; V5-scFv-Y022-Fc; not shown: Fc fragment of human IgG1 from vector pCMV-V5-Fc, fused downstream of the multiple cloning site; limits and junction res
Regarding B14, the binding result in experiment [5] is given as “binds”.
